Experimental data from patent US20090004675A1, “Method of Identifying Compounds for Bacterial Growth Modulation” (priority 2004, published 2009).

Tests used:
[1] = biological target: Escherichia coli β clamp (beta subunit of DNA polymerase III holoenzyme) (UniProt P0A988); assay: fluorescence (fluorophore-labeled β titrated with peptide); ±0.9; labeled β
[2] = biological target: Escherichia coli β clamp (beta subunit of DNA polymerase III holoenzyme) (UniProt P0A988); assay: fluorescence anisotropy; labeled peptide
[3] = biological target: Escherichia coli β clamp (beta subunit of DNA polymerase III holoenzyme) (UniProt P0A988); assay: fluorescence (fluorophore-labeled β titrated with peptide); ±0.6; labeled β

Chain of Escherichia coli β clamp (beta subunit of DNA polymerase III holoenzyme) (P0A988 whole entry): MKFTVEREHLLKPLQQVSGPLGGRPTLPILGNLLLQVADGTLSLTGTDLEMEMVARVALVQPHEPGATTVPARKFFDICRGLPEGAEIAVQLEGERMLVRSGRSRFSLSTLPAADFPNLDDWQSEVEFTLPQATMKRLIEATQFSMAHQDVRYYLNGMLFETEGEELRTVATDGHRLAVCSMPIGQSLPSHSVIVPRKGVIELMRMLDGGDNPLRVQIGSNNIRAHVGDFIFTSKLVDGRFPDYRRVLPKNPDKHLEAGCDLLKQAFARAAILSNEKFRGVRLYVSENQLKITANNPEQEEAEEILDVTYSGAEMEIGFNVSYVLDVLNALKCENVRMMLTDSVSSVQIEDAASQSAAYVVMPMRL
Chain of C-terminal peptide corresponding to Staphylococcus aureus Pol C (A6QGG4 1419-1438): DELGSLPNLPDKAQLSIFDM
Chain of Peptide corresponding to C-terminal residues of Streptococcus pyogenes Pol C (A2RGI3 1444-1465): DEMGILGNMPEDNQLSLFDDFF

Substance	Kd [1]	Kd [2]	Kd [3]
C-terminal peptide corresponding to Staphylococcus aureus Pol C	7.2 µM	5.9 µM	–
Peptide corresponding to C-terminal residues of Streptococcus pyogenes Pol C	–	1.5 µM	2.5 µM
